Results on one substance are retold here after article PMC5226589.

Assay [1] deals with telomere target construct (TCON): HALO-tagged fusion of EGFP, CIB1 and TRF1 (UniProt Q8GY61).
The target is the same in assay [2]. Kind of assay: FRET or BRET; FLIM-FRET in live HeLa cells co-transfected with TCON and ECON; lifetime of EGFP (donor) with mCherry (acceptor); blue light 8 mW/cm^2 for 5 min (a similar response after 8 min at 1 mW/cm^2).

Take “epigenetic effector construct (ECON): HALO-tagged fusion of DNMT3A, CRY2PHR and mCherry (from UniProt Q9Y6K1 1-912)”: the mean telomere length (TRF, Southern blot) of co-transfected HeLa cells exposed to blue light over three generations (5.3 Kb Gen-1 to 6.03 Kb Gen-3; without light 5.01 Kb to 4.6 Kb) in assay [1] was 6.03 Kb. In assay [2], this substance displayed an average fluorescence lifetime of EGFP (FRET donor on TCON) after 5 min of blue light of 2.06 ns.
